# Laboratory results published in article PMC10640585, “The E3 ligase Riplet promotes RIG-I signaling independent of RIG-I oligomerization” (Nature Communications, 2023).
# T1: biotinylated Avi-tagged RIG-I (Retinoic acid inducible gene-I) (human, UniProt O95786 1-925, biotin on the Avi tag (by BirA))
# T1 construct: RIG-I, human, full-length protein; Used alone (apo), pre-incubated with the RNA p3SLR14 (one RIG-I per RNA) or with p3dsRNA24 (two RIG-I per RNA); also called Avi-RIG-I; Apo-RIG-I; source: E. coli Rosetta 2(DE3), purified (Ni-NTA, heparin, SEC), biotinylated by BirA, SEC; not shown: His6, N-terminal, cleaved; SUMO, N-terminal, cleaved
# T1 sequence (looked up): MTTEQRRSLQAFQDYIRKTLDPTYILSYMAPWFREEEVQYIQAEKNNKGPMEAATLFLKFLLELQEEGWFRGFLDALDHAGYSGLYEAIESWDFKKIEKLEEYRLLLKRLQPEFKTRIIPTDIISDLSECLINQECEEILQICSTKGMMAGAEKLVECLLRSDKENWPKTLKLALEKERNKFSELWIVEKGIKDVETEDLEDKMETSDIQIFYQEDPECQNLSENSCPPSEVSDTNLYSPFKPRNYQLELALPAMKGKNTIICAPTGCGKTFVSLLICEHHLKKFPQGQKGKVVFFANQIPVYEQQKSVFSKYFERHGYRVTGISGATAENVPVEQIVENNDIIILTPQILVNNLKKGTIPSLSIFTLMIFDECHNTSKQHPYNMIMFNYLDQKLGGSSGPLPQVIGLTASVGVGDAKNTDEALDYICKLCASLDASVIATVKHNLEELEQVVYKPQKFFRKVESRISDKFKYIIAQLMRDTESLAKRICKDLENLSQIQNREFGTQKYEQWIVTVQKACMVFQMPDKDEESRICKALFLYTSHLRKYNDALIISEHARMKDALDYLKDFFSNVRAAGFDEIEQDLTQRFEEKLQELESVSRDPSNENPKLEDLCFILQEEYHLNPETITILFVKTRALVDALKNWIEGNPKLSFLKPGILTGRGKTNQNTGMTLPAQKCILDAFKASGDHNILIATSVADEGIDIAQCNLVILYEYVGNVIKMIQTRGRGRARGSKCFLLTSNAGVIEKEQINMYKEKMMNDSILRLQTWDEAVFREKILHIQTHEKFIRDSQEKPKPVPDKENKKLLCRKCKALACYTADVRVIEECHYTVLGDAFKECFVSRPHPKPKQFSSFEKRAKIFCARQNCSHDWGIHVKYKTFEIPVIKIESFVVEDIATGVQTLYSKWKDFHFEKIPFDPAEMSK
# T2: biotinylated Avi-tagged RIG-I (human, UniProt O95786 1-925, biotin on the Avi tag (by BirA))
# T2 construct: RIG-I (Retinoic acid inducible gene-I), human, full-length; Immobilised on the SPR chip as apo protein or pre-incubated with p3SLR14 (1:1.5) or p3dsRNA24 (2.4:1; two RIG-I on one RNA); also called Avi-RIG-I; biotinylated RIG-I; source: E. coli Rosetta 2(DE3), purified (Ni-NTA, ULP1, heparin, size exclusion), biotinylated by BirA, size exclusion; not shown: 6xHis, N-terminal, cleaved; SUMO, …
# T2 sequence (looked up): T1 sequence (looked up)
# T3: RIG-I;Riplet (human;human, UniProt O95786;Q8IUD6 1-925;1-432, |)
# T3 sequence 1: T1 sequence (looked up)
# T3 sequence 2: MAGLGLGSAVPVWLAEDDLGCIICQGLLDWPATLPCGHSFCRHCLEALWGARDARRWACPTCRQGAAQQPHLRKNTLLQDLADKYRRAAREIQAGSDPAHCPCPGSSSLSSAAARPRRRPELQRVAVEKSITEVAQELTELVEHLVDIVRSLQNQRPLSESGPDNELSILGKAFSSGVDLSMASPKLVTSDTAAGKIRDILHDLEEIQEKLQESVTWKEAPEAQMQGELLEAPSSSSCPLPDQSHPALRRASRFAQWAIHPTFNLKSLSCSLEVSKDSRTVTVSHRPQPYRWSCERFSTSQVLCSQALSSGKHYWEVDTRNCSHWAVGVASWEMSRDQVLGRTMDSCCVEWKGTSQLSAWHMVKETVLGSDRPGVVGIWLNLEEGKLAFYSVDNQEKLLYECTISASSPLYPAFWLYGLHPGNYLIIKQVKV
# B1: Riplet-PrySpry (249-432) (domain or fragment, human, UniProt Q8IUD6 249-432, looked up)
# chain: RRASRFAQWAIHPTFNLKSLSCSLEVSKDSRTVTVSHRPQPYRWSCERFSTSQVLCSQALSSGKHYWEVDTRNCSHWAVGVASWEMSRDQVLGRTMDSCCVEWKGTSQLSAWHMVKETVLGSDRPGVVGIWLNLEEGKLAFYSVDNQEKLLYECTISASSPLYPAFWLYGLHPGNYLIIKQVKV
# notes: Riplet, human, PrySpry domain, residues 249-432; also called Pspry; source: E. coli Rosetta 2(DE3), purified (Ni-NTA, SEC); not shown: His6, N-terminal, cleaved; SUMO, N-terminal, cleaved
# B2: Riplet-PrySpry (249-432) (domain or fragment, human, UniProt Q8IUD6 249-432, looked up)
# chain: B1 chain
# notes: Riplet, human, PrySpry domain, residues 249-432 (RING and CC domains deleted); pET-SUMO-Riplet-PrySpry(249-432); the PDB entries are of the full-length parent; also called PrySpry domain alone; source: E. coli Rosetta 2(DE3), purified (Ni-NTA, ULP1 digestion, size exclusion); not shown: 6xHis, N-terminal, cleaved; SUMO, N-terminal, cleaved
# B3: Riplet-ΔRING (94-432) (domain or fragment, human, UniProt Q8IUD6 94-432, looked up)
# chain: AGSDPAHCPCPGSSSLSSAAARPRRRPELQRVAVEKSITEVAQELTELVEHLVDIVRSLQNQRPLSESGPDNELSILGKAFSSGVDLSMASPKLVTSDTAAGKIRDILHDLEEIQEKLQESVTWKEAPEAQMQGELLEAPSSSSCPLPDQSHPALRRASRFAQWAIHPTFNLKSLSCSLEVSKDSRTVTVSHRPQPYRWSCERFSTSQVLCSQALSSGKHYWEVDTRNCSHWAVGVASWEMSRDQVLGRTMDSCCVEWKGTSQLSAWHMVKETVLGSDRPGVVGIWLNLEEGKLAFYSVDNQEKLLYECTISASSPLYPAFWLYGLHPGNYLIIKQVKV
# notes: Riplet, human, residues 94-432 (CC and PrySpry domains, RING deleted); source: E. coli Rosetta 2(DE3), purified (Ni-NTA, SEC); not shown: His6, N-terminal, cleaved; SUMO, N-terminal, cleaved
# B4: Riplet-ΔRING (94-432) (domain or fragment, human, UniProt Q8IUD6 94-432, looked up)
# chain: B3 chain
# notes: Riplet, human, residues 94-432 (RING domain deleted; CC and PrySpry domains kept); pET-SUMO-Riplet-ΔRING(94-432); the PDB entries are of the full-length parent; source: E. coli Rosetta 2(DE3), purified (Ni-NTA, ULP1 digestion, size exclusion); not shown: 6xHis, N-terminal, cleaved; SUMO, N-terminal, cleaved
# B5: Riplet full length (RING finger protein leading to RIG-I activation) (enzyme, human, UniProt Q8IUD6 1-432, looked up)
# chain: T3 sequence 2
# notes: Riplet, human, full length (1-432); also called Riplet-FL; Riplet WT; source: E. coli Rosetta 2(DE3), purified (Ni-NTA, SEC); not shown: His6, N-terminal, cleaved; SUMO, N-terminal, cleaved
# B6: Riplet, full-length (Riplet-FL) (enzyme, human, UniProt Q8IUD6 1-432, looked up)
# chain: T3 sequence 2
# notes: Only the PrySpry domain is resolved in the cryo-EM maps; also called Riplet WT; E3 ligase Riplet; source: E. coli Rosetta 2(DE3), purified (Ni-NTA, ULP1 digestion, size exclusion); not shown: 6xHis, N-terminal, cleaved; SUMO, N-terminal, cleaved
# B7: p3dsRNA24 (dsRNA)
# RNA 1: GGACGUACGUUUCGCGACUGUAGA
# RNA 2: UCUACAGUCGCGAAACGUACGUCC
# modifications: 5'-triphosphate on both strands
# Tests used:
# [1] = biological target: T1, biotinylated Avi-tagged RIG-I (Retinoic …); experiment: SPR; biotinylated RIG-I pre-incubated with p3SLR14 (1:1.5, 4 °C overnight) immobilised on a streptavidin SADH chip; Riplet constructs as analyte in HBS-EP+, 50 µl/min, dissociation 180 s, OneStep mode, 1:1 model; conditions: both partners purified
# [2] = biological target: T1, biotinylated Avi-tagged RIG-I (Retinoic …); experiment: SPR; biotinylated RIG-I pre-incubated with p3dsRNA24 (2.4:1, 4 °C overnight; two RIG-I per RNA) immobilised on a streptavidin SADH chip; Riplet constructs as analyte in HBS-EP+, 50 µl/min, dissociation 180 s, OneStep mode, 1:1 model; conditions: both partners purified
# [3] = biological target: T1, biotinylated Avi-tagged RIG-I (Retinoic …); experiment: SPR; biotinylated apo-RIG-I (no RNA) immobilised on a streptavidin SADH chip; Riplet constructs as analyte in HBS-EP+, 50 µl/min, dissociation 180 s, OneStep mode, 1:1 model; conditions: both partners purified
# [4] = biological target: T2, biotinylated Avi-tagged RIG-I; experiment: SPR; biotinylated RIG-I pre-incubated with p3dsRNA24 (2.4:1, 4 °C overnight; two RIG-I on one RNA) immobilised on streptavidin SADH chip; Riplet constructs 0.125-10 µM in HBS-EP+, 50 µl/min, dissociation 180 s, OneStep mode, 1:1 model; conditions: both partners purified
# [5] = biological target: T2, biotinylated Avi-tagged RIG-I; experiment: SPR; biotinylated RIG-I pre-incubated with p3SLR14 (1:1.5, 4 °C overnight) immobilised on streptavidin SADH chip; Riplet constructs 0.125-10 µM in HBS-EP+, 50 µl/min, dissociation 180 s, OneStep mode, 1:1 model; conditions: both partners purified
# [6] = biological target: T2, biotinylated Avi-tagged RIG-I; experiment: SPR; apo biotinylated RIG-I immobilised on streptavidin SADH chip; Riplet constructs 0.125-10 µM in HBS-EP+, 50 µl/min, dissociation 180 s, OneStep mode, 1:1 model; conditions: both partners purified
# RIG-I;Riplet = biological target: T3, RIG-I;Riplet; experiment: cryo-EM; end-end complex, 2 RIG-I:1 RNA:1 Riplet dimer, 3.2 A; EMSA: RNA + RIG-I 30 min RT, then Riplet 30 min RT, 6% native PAGE, GelRed; protein storage buffer 25 mM HEPES pH 7.4, 200 mM NaCl, 5% glycerol, 5 mM BME (bindi); conditions: protein: recombinant;recombinant, tags: N-terminal 6xHis-SUMO, removed by ULP1;N-terminal 6xHis-SUMO, chain copies: 2;2, blunt
Binder,koff [1] [s⁻¹],kon [1] [M⁻¹ s⁻¹],koff [2] [s⁻¹],kon [2] [M⁻¹ s⁻¹],koff [3] [s⁻¹],kon [3] [M⁻¹ s⁻¹],Kd [4] [nM],also measured
B1,0.18,51000,0.19,130000,0.18,60000,,Kd [1]: 3600 nM; Kd [3]: 3100 nM
B2,,,,,,,1400,
B3,0.067,54000,0.0085,810000,0.073,110000,,Kd [3]: 700 nM
B4,,,,,,,10,Kd [5]: 700 to 1200 nM
B5,0.013,19000,0.003,450000,0.0034,4600,,
B6,,,,,,,6.6,Kd [6]: 700 nM
B7,,,,,,,,binding result (RIG-I;Riplet): binds
